Three molecules from patent US5587462, “Brain-derived membrane-associated CRF binding proteins” (The Salk Institute For Biological Studies, dated 1996) can be followed below.

Experiment [1] addresses 33 kD ovine brain-derived membrane-associated CRF-BP (sheep (ovine)). Description: competition of radiolabeled CRF binding by cold CRF.
In experiment [2] the target is 35 kD ovine brain-derived membrane-associated CRF-BP (sheep (ovine)). The experiment is described as above.
The target of experiment [3] is T1, human Corticotropin-Releasing Factor (hCRF) (human (same molecule in rat), UniProt P06850, 125I-radiolabeled in the binding, cross-linking and LIRMA assays; immobilized on a solid-phase matrix in the affinity chromatography).
T1 peptide: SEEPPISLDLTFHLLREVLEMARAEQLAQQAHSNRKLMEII
Description: binding assay with purified membrane-associated CRF-BP.

“Corticotropin-Releasing Factor (CRF), species not stated at the experiment (peptide)”: the concentration of cold CRF that competes in experiment [1] and in experiment [2] was 1 µM each time.

B1: 33 kD ovine brain-derived membrane-associated CRF-BP (other)
chain: ELEGEPLYRRALRCVDMLSLQGQFTFTADRRQLHCATFFIAEPEEFITIHYDLVSIDCLRGDILQVFDGWILKGEKFPSSQDHPLPTTERYVDFCDSGLSRRSIRSSQNVAMIFFRVHEPGNGFTITVKTEPNLFPCNIISQTPNGRFTLVMPHQHRNCSFSIIYPVAIKISDLTLGHLNGLQLKKSSAGCGGIGDFVELLGGTGLDPSKMLLLADLCYPLRGPAQMKVGCDHTVLRMVSSGKLLNRVTFEYRKLEPYELENPNGNSIQEFCLSTL
Turning to B1, in experiment [3], binding was put at a Kd of 0.25 nM.

B2: 35 kD ovine brain-derived membrane-associated CRF-BP (other)
chain: EAVDHDSFPHLAGGASPKRELEGEPLYRRALRCVDMLSLQGQFTFTADRRQLHCATFFIAEPEEFITIHYDLVSIDCLRGDILQVFDGWILKGEKFPSSQDHPLPTTERYVDFCDSGLSRRSIRSSQNVAMIFFRVHEPGNGFTITVKTEPNLFPCNIISQTPNGRFTLVMPHQHRNCSFSIIYPVAIKISDLTLGHLNGLQLKKSSAGCGGIGDFVELLGGTGLDPSKMLLLADLCYPLRGPAQMKVGCDHTVLRMVSSGKLLNRVTFEYRKLEPYELENPNGNSIQEFCLSTL
B2: the affinity in experiment [3], expressed as Kd, was 7.5 nM.
